Results from publication PMC10676354.

Legend:
[1] = fluorometric AGE assay, HEK293 mitochondria, vehicle (PBS); conditions: glycan lost; control: DJ1 WT
[2] = fluorometric AGE assay, HEK293 mitochondria, MGO 30 min; conditions: glycan lost; control: DJ1 WT

B1: DJ1: T19A (protein)
parent chain: MASKRALVILAKGAEEMETVIPVDVMRRAGIKVTVAGLAGKDPVQCSRDVVICPDASLEDAKKEGPYDVVVLPGGNLGAQNLSESAAVKEILKEQENRKGLIAAICAGPTALLAHEIGFGSKVTTHPLAKDKMMNGGHYTYSENRVEKDGLILTSRGPGTSFEFALAIVEALNGKEVAAQVKAPLVLKD
other: mitochondrial protein glycation [1]: no change | other: mitochondrial protein glycation [2]: increases
